Square brackets hold non-standard residues; d marks the D form. Ends that are not written are not given here. * marks the point of attachment. Bn2 = Nα,Nα-dibenzyl on N-terminal residue; 1Nal = N[C@@H](Cc1cccc2ccccc12)C(=O)O; Cha = N[C@@H](CC1CCCCC1)C(=O)O; Phg = N[C@H](C(=O)O)c1ccccc1; Bn = c1ccc(C*)cc1; Acm = CC(=O)NC*
molecular target: T1, CGRP1 receptor (CRLR/RAMP1 complex) of human neuroblastoma SK-N-MC cells (human, UniProt Q16602 23-461; O60894 27-148); experiment: 125I-hαCGRP competition, SK-N-MC membranes
T1 construct: whole, on cells
T1 sequence (Q16602 23-461, chain 1 of 2): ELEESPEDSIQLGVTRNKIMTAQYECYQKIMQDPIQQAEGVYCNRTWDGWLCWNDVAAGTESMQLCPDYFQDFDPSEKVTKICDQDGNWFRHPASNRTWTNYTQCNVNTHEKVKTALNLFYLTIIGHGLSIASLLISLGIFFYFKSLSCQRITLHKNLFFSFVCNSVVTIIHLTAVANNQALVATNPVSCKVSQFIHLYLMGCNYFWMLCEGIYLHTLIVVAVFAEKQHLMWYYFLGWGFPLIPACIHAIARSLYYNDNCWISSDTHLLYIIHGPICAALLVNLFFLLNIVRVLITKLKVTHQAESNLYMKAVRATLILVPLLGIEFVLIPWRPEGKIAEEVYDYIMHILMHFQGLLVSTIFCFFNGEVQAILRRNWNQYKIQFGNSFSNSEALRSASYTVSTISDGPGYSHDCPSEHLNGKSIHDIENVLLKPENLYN
T1 sequence (O60894 27-148, chain 2 of 2): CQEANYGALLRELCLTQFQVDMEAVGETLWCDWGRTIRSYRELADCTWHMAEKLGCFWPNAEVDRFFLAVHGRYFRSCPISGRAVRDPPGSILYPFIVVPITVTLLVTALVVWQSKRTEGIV
Procedure: CGRP₁ binding experiments. […] The plates were incubated at room temperature for 2 hour with shaking at 60 rpm, then the contents of each well were filtered over 0.5% polyethyleneimine (PEI)-treated (at least one hour) GF/C 96-well filter plates. The GF/C filter plates were washed 6 times with ice-cold 50 mM Tris, pH 7.5 and dried in an oven at 55 C for 1 hour. The bottoms of the GF/C plates were then sealed, and 40 μl Microscint™ 20 was added to each well, then the tops of the GF/C plates were sealed with TopSeal™-A, a press-on adhesive sealing film, and the GF/C plates were counted with TopCount NXT (Packard). The data were analyzed by using ActivityBase (IDBS) or Prizm (GraphPad) software.

Binder	Ki
ASDTATCVTHRLAGLLSRSGGVVKNNFVPTNVGSKAF (ASDTATC(Acm)VTHRLAGLLSRSGGVVKNNFVPTNVGSKAF-NH2) [SEQ ID NO 707]	20.8 nM
ASDTATSVTHRLAGLLSRSGGVVKNNFVPTNVGSKAF-NH2 [SEQ ID NO 709]	12.1 nM
AC(Acm)DTATSVTHRLAGLLSRSGGVVKNNFVPTNVGSKAF-NH2 (N-terminus assumed; SMILES CC(=O)NCSC[C@H](NC(=O)[C@H](C)N)C(=O)N[C@@H](CC(=O)O)C(=O)N[C@H](C(=O)N[C@@H](C)C(=O)N[C@H](C(=O)N[C@@H](CO)C(=O)N[C@H](C(=O)N[C@H](C(=O)N[C@@H](Cc1c[nH]cn1)C(=O)N[C@@H](CCCNC(=N)N)C(=O)N[C@@H](CC(C)C)C(=O)N[C@@H](C)C(=O)NCC(=O)N[C@@H](CC(C)C)C(=O)N[C@@H](CC(C)C)C(=O)N[C@@H](CO)C(=O)N[C@@H](CCCNC(=N)N)C(=O)N[C@@H](CO)C(=O)NCC(=O)NCC(=O)N[C@H](C(=O)N[C@H](C(=O)N[C@@H](CCCCN)C(=O)N[C@@H](CC(N)=O)C(=O)N[C@@H](CC(N)=O)C(=O)N[C@@H](Cc1ccccc1)C(=O)N[C@H](C(=O)N1CCC[C@H]1C(=O)N[C@H](C(=O)N[C@@H](CC(N)=O)C(=O)N[C@H](C(=O)NCC(=O)N[C@@H](CO)C(=O)N[C@@H](CCCCN)C(=O)N[C@@H](C)C(=O)N[C@@H](Cc1ccccc1)C(N)=O)C(C)C)[C@@H](C)O)C(C)C)C(C)C)C(C)C)[C@@H](C)O)C(C)C)[C@@H](C)O)[C@@H](C)O) [SEQ ID NO 708]	24 nM
VTHRLAGLLSRSGGVVKCNFVPTNVGSKAF (VTHRLAGLLSRSGGVVKC^(5 kDa MeO-PEG)NFVPTNVGSKAF-amide) [SEQ ID NO 693]	17.5 nM
VTHRLAGLLSRSGGVVC(MeO‑PEG 5 kDa)NNFVPTNVGSKAF-NH2 [SEQ ID NO 691]	157 nM
[Phg]VTHRLAGLLSRSGGVVKNNFVPTDVGPFAF-NH2 (N-terminus assumed; SMILES CC(C)C[C@H](NC(=O)CNC(=O)[C@H](C)NC(=O)[C@H](CC(C)C)NC(=O)[C@H](CCCNC(=N)N)NC(=O)[C@H](Cc1c[nH]cn1)NC(=O)[C@@H](NC(=O)[C@@H](NC(=O)[C@@H](N)c1ccccc1)C(C)C)[C@@H](C)O)C(=O)N[C@@H](CC(C)C)C(=O)N[C@@H](CO)C(=O)N[C@@H](CCCNC(=N)N)C(=O)N[C@@H](CO)C(=O)NCC(=O)NCC(=O)N[C@H](C(=O)N[C@H](C(=O)N[C@@H](CCCCN)C(=O)N[C@@H](CC(N)=O)C(=O)N[C@@H](CC(N)=O)C(=O)N[C@@H](Cc1ccccc1)C(=O)N[C@H](C(=O)N1CCC[C@H]1C(=O)N[C@H](C(=O)N[C@@H](CC(=O)O)C(=O)N[C@H](C(=O)NCC(=O)N1CCC[C@H]1C(=O)N[C@@H](Cc1ccccc1)C(=O)N[C@@H](C)C(=O)N[C@@H](Cc1ccccc1)C(N)=O)C(C)C)[C@@H](C)O)C(C)C)C(C)C)C(C)C) [SEQ ID NO 703]	0.19 nM
WVTHXLAGLLSXSGGVVXKNFVPTDVGXFAF (Ac-WVTH[Cit]LAGLLS[Cit]SGGVV[hArg]K(20 KPEGald)NFVPTDVG[Oic]FAF-NH2) [SEQ ID NO 172]	1.27 nM
WVTHXLAGLLSXSGGVVXKNFVPTDVGPFAF (Ac-WVTH[Cit]LAGLLS[Cit]SGGVV[hArg]K(20 K PEGald)NFVPTDVGPFAF-NH2) [SEQ ID NO 153]	1.78 nM
WVTHXLAGLLSXSGGVVRKNFVPTDVGPFAF (Ac-WVTH[Cit]LAGLLS[Cit]SGGVVRK(20 KPEGald)NFVPTDVGPFAF-NH2) [SEQ ID NO 158]	2.61 nM
WVTHXLAGLLSXSGGVVXKNFVPTDVGPFAF (Ac-WVTH[Cit]LAGLLS[Cit]SGGVV[hArg]K(20 KPEGald)NFVPTDVGPFAF-NH2) [SEQ ID NO 171]	1.27 nM
WVTHXLAGLLSXSGGVVXKNFVPTDVGPXAF (Ac-WVTH[Cit]LAGLLS[Cit]SGGVV[hArg]KNFVPTDVGP[1-Nal]AF-NH2) [SEQ ID NO 674]	0.64 nM
Bn2-VTHRLAGLLSRSGGVVKNNFVPTDVGPFAF-NH2 [SEQ ID NO 702]	0.23 nM
CGGGGGGGFVPTDVGPFAF-NH2 [SEQ ID NO 721]	7.34 nM
[Cha]VTHRLAGLLSRSGGVVKNNFVPTDVGPFAF-NH2 [SEQ ID NO 704]	0.2 nM
WVTHRLAGLLSRSGGVVKC(MeO‑PEG 5 kDa)NFVPTDVGPFAF-NH2 [SEQ ID NO 696]	0.21 nM
[1Nal]VTHRLAGLLSRSGGVVKNNFVPTDVGPFAF-NH2 (N-terminus assumed; SMILES CC(C)C[C@H](NC(=O)CNC(=O)[C@H](C)NC(=O)[C@H](CC(C)C)NC(=O)[C@H](CCCNC(=N)N)NC(=O)[C@H](Cc1c[nH]cn1)NC(=O)[C@@H](NC(=O)[C@@H](NC(=O)[C@@H](N)Cc1cccc2ccccc12)C(C)C)[C@@H](C)O)C(=O)N[C@@H](CC(C)C)C(=O)N[C@@H](CO)C(=O)N[C@@H](CCCNC(=N)N)C(=O)N[C@@H](CO)C(=O)NCC(=O)NCC(=O)N[C@H](C(=O)N[C@H](C(=O)N[C@@H](CCCCN)C(=O)N[C@@H](CC(N)=O)C(=O)N[C@@H](CC(N)=O)C(=O)N[C@@H](Cc1ccccc1)C(=O)N[C@H](C(=O)N1CCC[C@H]1C(=O)N[C@H](C(=O)N[C@@H](CC(=O)O)C(=O)N[C@H](C(=O)NCC(=O)N1CCC[C@H]1C(=O)N[C@@H](Cc1ccccc1)C(=O)N[C@@H](C)C(=O)N[C@@H](Cc1ccccc1)C(N)=O)C(C)C)[C@@H](C)O)C(C)C)C(C)C)C(C)C) [SEQ ID NO 701]	0.14 nM

Binder	Ki
Bn-VTHRLAGLLSRSGGVVKNNFVPTDVGPFAF-NH2 (SMILES CC(C)C[C@H](NC(=O)CNC(=O)[C@H](C)NC(=O)[C@H](CC(C)C)NC(=O)[C@H](CCCNC(=N)N)NC(=O)[C@H](Cc1c[nH]cn1)NC(=O)[C@@H](NC(=O)[C@@H](NCc1ccccc1)C(C)C)[C@@H](C)O)C(=O)N[C@@H](CC(C)C)C(=O)N[C@@H](CO)C(=O)N[C@@H](CCCNC(=N)N)C(=O)N[C@@H](CO)C(=O)NCC(=O)NCC(=O)N[C@H](C(=O)N[C@H](C(=O)N[C@@H](CCCCN)C(=O)N[C@@H](CC(N)=O)C(=O)N[C@@H](CC(N)=O)C(=O)N[C@@H](Cc1ccccc1)C(=O)N[C@H](C(=O)N1CCC[C@H]1C(=O)N[C@H](C(=O)N[C@@H](CC(=O)O)C(=O)N[C@H](C(=O)NCC(=O)N1CCC[C@H]1C(=O)N[C@@H](Cc1ccccc1)C(=O)N[C@@H](C)C(=O)N[C@@H](Cc1ccccc1)C(N)=O)C(C)C)[C@@H](C)O)C(C)C)C(C)C)C(C)C) [SEQ ID NO 700]	0.22 nM
Ac-WVTHRLAGLLSRSGGVVKCNFVPTDVGPFAF-NH2 (not fully specified (residue 19); printed as Ac-WVTHRLAGLLSRSGGVVKC^(20 kDa PEG)NFVPTDVGPFAF-amide) [SEQ ID NO 231]	0.27 nM
Ac-WVTHRLAGLLSRSGGVVCNNFVPTDVGPFAF-NH2 (not fully specified (residue 18); printed as Ac-WVTHRLAGLLSRSGGVVC^(20 kDa PEG)NNFVPTDVGPFAF-amide) [SEQ ID NO 683]	1.58 nM
Ac-WVTHRLAGLLSRSGGVVCNNFVPTDVGPFAF-NH2 [SEQ ID NO 682]	0.34 nM
WVTHRLAGLLSRSGGVVKCNFVPTNVGSKAF (WVTHRLAGLLSRSGGVVKC^(5 kDa MeO-PEG)NFVPTNVGSKAF-amide) [SEQ ID NO 695]	5.44 nM
Ac-WVTHRLAGLLSRSGGVVRCNFVPTDVGPFAF-NH2 (not fully specified (residue 19); printed as Ac-WVTHRLAGLLSRSGGVVRC^(20 kDa PEG)NFVPTDVGPFAF-amide) [SEQ ID NO 681]	0.6 nM
Ac-WVTHRLAGLLSRSGGVVKNNFVPTDVGPFAF-NH2 [SEQ ID NO 684]	0.08 nM
Ac-WVTHRLAGLLSRSGGVVRCNFVPTDVGPFAF-NH2 [SEQ ID NO 680]	0.58 nM
C(MeO‑PEG 5 kDa)GGGGGGGWVTHRLAGLLSRSGGVVKNNFVPTDVGPFAF-NH2 [SEQ ID NO 697]	5.74 nM
VTHRLAGLLSRSGGVVKCNFVPTNVGSKAF (VTHRLAGLLSRSGGVVKC^(5 kDa MeO-PEG)NFVPTNVGSKAF-amide) [SEQ ID NO 694]	31.8 nM
C(MeO‑PEG 5 kDa)GGGGGGGVTHRLAGLLSRSGGVVKNNFVPTNVGSKAF-NH2 [SEQ ID NO 690]	3070 nM
CGGGGGGGVTHRLAGLLSRSGGVVKNNFVPTDVGPFAF-NH2 (not fully specified (residue 1)) [SEQ ID NO 692]	20.8 nM
Ac-VTHRLAGLLSRSGGVVRK(PEG 5 kDa)NFVPTDVGPFAF-NH2 [SEQ ID NO 229]	0.06 nM
Ac-WVTHRLAGLLSRSGGVVKC(PEG 30 kDa)NFVPTDVGPFAF-NH2 [SEQ ID NO 232]	0.27 nM
WVTHRLAGLLSRSGGVVKCNFVPTDVGPFAF-NH2 [SEQ ID NO 689]	0.95 nM
Ac-VTHRLAGLLSRSGGVVRK(20 kDa PEG)NFVPTDVGPFAF-NH2 [SEQ ID NO 230]	0.17 nM
